Data set [1] addresses CvkR (Cas V-K repressor, Alr3614) of Anabaena (Nostoc) sp. PCC 7120 (Anabaena (Nostoc) sp. PCC 7120). Nature of the data set: SEC. (In gel filtration, larger molecules generally elute earlier.)
The target in another data set is CvkR (Alr3614) (Anabaena (Nostoc) sp. PCC 7120, UniProt A0ACD6B984 19-168). The data set is described as follows: EMSA. A general note: Mobility shift assays separate free from complexed probe on a gel.

For orientation: stoichiometry N means the number of molecules, sites or subunits per partner or assembly.

The molecule “CvkR (Cas V-K repressor, Alr3614) of Anabaena (Nostoc) sp. PCC 7120 (natural protein)” yielded a stoichiometry N in data set [1] of 2.

B1: Pcas12k (P82) (dsDNA)
DNA 1: AAGAAACATCCTATAGAAGCATCTTCTAAAACACATTAGTGCTTTGTATAACATTATGTGTTTTGTATGGTATTTTATTTTT
DNA 2: AAAAATAAAATACCATACAAAACACATAATGTTATACAAAGCACTAATGTGTTTTAGAAGATGCTTCTATAGGATGTTTCTT
Regarding B1, the binding result in the data set with CvkR (Alr3614) is “binds”.
